This is an account of results in PMC9918506, “Structural insights into pathogenic mechanism of hypohidrotic ectodermal dysplasia caused by ectodysplasin A variants” (Nature Communications, 2023).

B1: EDA·A1 TNF homology domain (EDA·A1THD, residues 233–391), wild type [human] / EDAR cysteine-rich domains (EDAR_(CRDS), residues 30–150), MBP tag removed [human] (parent)
chain 1: GPSGAADKAGTRENQPAVVHLQGQGSAIQVKNDLSGGVLNDWSRITMNPKVFKLHPRSGELEVLVDGTYFIYSQVEVYYINFTDFASYEVVVDEKPFLQCTRSIETGKTNYNTCYTAGVCLLKARQKIAVKMVHADISINMSKHTTFFGAIRLGEAPAS
chain 2: GGSGGSGGSGGSNCGENEYYNQTTGLCQECPPCGPGEEPYLSCGYGTKDEDYGCVPCPAEKFSKGGYQICRRHKDCEGFFRATVLTPGDMENDAECGPCLPGYYMLENRPRNIYGMVCYSCLLAPPNTKECVG

In this assay the parent is B1. The assay is described as follows: SPR. As to conditions: with EDAR cysteine-rich domains (EDAR_(CRDS), residues 30–150), 50, 25, 12.5, 6.25, 3.125 nM.
In general, Kd refers to the equilibrium constant for the complex coming apart. As to chain 1 GPSGAADKAGTRENQPAVVHLQGQGSAIQVKNDLSGGVLNDWSCITMNPKVFKLHPRSGELEVLVDGTYFIYSQVEVYYINFTDFASYEVVVDEKPFLQCTRSIETGKTNYNTCYTAGVCLLKARQKIAVKMVHADISINMSKHTTFFGAIRLGEAPAS, the dissociation constant (Kd) came to 35.9 nM.
